Consider one molecule from article PMC12645976, “ARGLU1 is a negative regulator of the adenoviral replicative cycle” (Journal of Virology, 2025).

The target of this test is T1, 6xHis-E1A289R (HAdV5 E1A289R, 6xHis-tagged fusion protein) (human adenovirus 5 (HAdV5), UniProt P03255 1-289).
T1 construct: Early protein 1A (E1A) of human adenovirus 5 (HAdV5), the 289R product (289 residues by its name); also called Early protein 1A
Put plainly: pull-down; GST-ARGLU1 or GST mixed with 6xHis-E1A289R, captured on glutathione beads; 1 µg of each protein; western blot with M73 and M2 monoclonal E1A antibodies; glutathione beads alone as negative control. The following applies: both partners purified.

T1 sequence (P03255 whole entry, the tested form may be a part): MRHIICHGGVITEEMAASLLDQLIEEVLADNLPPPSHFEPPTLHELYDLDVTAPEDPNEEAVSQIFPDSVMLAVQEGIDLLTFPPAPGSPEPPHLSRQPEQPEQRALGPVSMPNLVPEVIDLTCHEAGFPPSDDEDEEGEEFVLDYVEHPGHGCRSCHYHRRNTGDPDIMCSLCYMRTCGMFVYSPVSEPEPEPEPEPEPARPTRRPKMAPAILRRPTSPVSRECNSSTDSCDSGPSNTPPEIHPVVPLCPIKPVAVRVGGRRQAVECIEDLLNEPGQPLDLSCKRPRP

B1: GST-ARGLU1 (human ARGLU1, GST-tagged fusion protein) (natural protein, UniProt Q9NWB6 1-273, looked up)
chain: MGRSRSRSSSRSKHTKSSKHNKKRSRSRSRSRDKERVRKRSKSRESKRNRRRESRSRSRSTNTAVSRRERDRERASSPPDRIDIFGRTVSKRSSLDEKQKREEEEKKAEFERQRKIRQQEIEEKLIEEETARRVEELVAKRVEEELEKRKDEIEREVLRRVEEAKRIMEKQLLEELERQRQAELAAQKAREEEERAKREELERILEENNRKIAEAQAKLAEEQLRIVEEQRKIHEERMKLEQERQRQQKEEQKIILGKGKSRPKLSFSLKTQD
notes: Arginine and glutamate-rich protein 1 (ARGLU1), human; also called Arginine and glutamate-rich protein 1; source: E. coli BL21 (DE3)-CodonPlus RIPL, purified (glutathione Sepharose, eluted with reduced glutathione, dialyzed)
For B1, the binding result is listed as “binds”.
